Experiments:
[1] = target: T1, thrombin (endogenous, clotting assay in plasma or whole blood) (Homo sapiens, UniProt P00734;P00734 P00734:328-363,P00734:364-622); experiment: inhibition; ACT at 10 uM
prothrombin = prothrombin (Homo sapiens, UniProt P00734 P00734:44-622); experiment: filter; 50 nM prothrombin; conditions: tags: Athens Research
Protocol: Dot blot binding assays were performed throughout the selections to monitor the protein binding affinity of the pools. Trace ³²P-labeled RNA was combined with a dilution series of human Thrombin (1 nM-1000 nM) and incubated at room temperature for 30 minutes in 1×DPBS (w/ Ca²⁺ and Mg²⁺) (Gibco, Catalog #14040, Invitrogen, Carlsbad, Calif.) plus 0.1 mg/ml BSA in a final volume of 30 μl. The binding reactions were analyzed by nitrocellulose filtration using a Minifold I dot-blot, 96-well vacuum filtration manifold (Schleicher & Schuell, Keene, N.H.). A three-layer filtration medium was used, consisting (from top to bottom) of Protran nitrocellulose (Schleicher & Schuell, Keene, N.H.), Hybond-P nylon (Amersham Biosciences, Piscataway, N.J.) and GB002 gel blot paper (Schleicher & Schuell, Keene, N.H.). RNA that is bound to protein is captured on the nitrocellulose filter, whereas the non-protein bound RNA is captured on the nylon filter. The gel blot paper was included simply as a supporting medium for the other filters. Following filtration, the filter layers were separated, dried and exposed on a phosphor screen (Amersham Biosciences, Piscataway, N.J.) and quantified using a Storm 860 Phosphorimager® blot imaging system (Amersham Biosciences, Piscataway, N.J.).
Based on pool binding monitored throughout the selections as described above, Round 9 Pools from both Selection #2 and #3 were also cloned using a TOPO TA Cloning kit (Invitrogen, Carlsbad, Calif.) according to manufacturer's instructions, and sequenced. Of the 136 sequences obtained from Round 9 of both selections, 130 unique sequences were selected for assaying in a single-point dot blot screen against thrombin and prothrombin to test for selective binding to thrombin. Clones were ordered from IDT (Coralville, Iowa) at 25 μmole synthesis scale. Clone transcripts were 5′ end labeled with γ̅³²P ATP and spin purified with Centrisep columns (Princeton Separations, Adelphia, N.J.) to remove excess label. Trace amounts of labeled clone were incubated with +/−10 nM Thrombin (or +/−50 nM prothrombin) and 0.1 mg/ml BSA in a total volume of 30 μl 1×DPBS (w/ Ca²⁺ and Mg²⁺) (Gibco, Catalog #14040, Invitrogen, Carlsbad, Calif.) for 30 minutes. Post incubation, the binding reaction applied the dot-blot binding assay apparatus previously described.

[2] = target: T2, thrombin (alpha-thrombin) (Homo sapiens, UniProt P00734;P00734 P00734:315-363,P00734:364-622); experiment: filter; DPBS Ca2+ Mg2+, 0.1 mg/ml BSA
[3] = target: T1, thrombin (endogenous, clotting assay in …); experiment: inhibition; PT at 10 uM
[4] = target: T2, thrombin (alpha-thrombin); experiment: filter; 10 nM thrombin

Binder: ACTGCCTAGGTTGGTGTGGTTGGTGGCAGT (ssDNA) [ARC2184]
- activity [1]: 368 s

Binder: TCCCGAGTGATCCGGGGTGTTTTTTTGGGTTGGGTGGCTGAGGATCGATC (ssDNA) [AMX(398)_E3]
- binding signal (prothrombin): 47.5 % bound
- Kd [2]: 0.89 nM

Binder: TCCCGATCGCTGTCCTAGGATGGGTAGGGTGGTGGCTGAGGATCGATC (ssDNA) [AMX(399)_D2]
- Kd [2]: 1.33 nM

Binder: ACCTCAGGGATGGTGTGGGTGGCTGAGGT (ssDNA) [ARC2173]
- activity [1]: 415 s

Binder: TACCTCAGGGATGGTGTGGGTGGCTGAGGTA (ssDNA) [ARC2174]
- activity [1]: 416 s

Binder: ATCCCAATGTTGAGACGAGTAGGTGTGGGTAGGGTGGCTGAGGATCGATC (ssDNA) [AMX(453)_A9]
- activity [3]: 29.3 s

Binder: TCCCGGGTGGTTATCTTCTCAGGGATGGTGTGGGTGGCTGAGGATCGATC (ssDNA) [AMX(395)_C1]
- Kd [2]: 7.48 nM

Binder: TCCCTAGATCGGGTCCTGGTAGTGTTTCTGGGTGGCTGAGGATCGATC (ssDNA) [AMX(399)_F5]
- binding signal (prothrombin): 49.3 % bound
- Kd [2]: 2.35 nM

Binder: TCCTGATTGATCTGAGGGGTATTGTTGGCGTGGGTGGCTGAGGATCGATC (ssDNA) [AMX(453)_C10]
- activity [3]: 104 s

Binder: TCCCATGATCGTCAGATTCAGGGATGGTGTGGGTGGCTGAGGATCGATC (ssDNA) [AMX(395)_E8]
- binding signal [4]: 21.3 % bound

Binder: ACTACCTCAGGGATGGTGTGGGTGGCTGAGGTAGT (ssDNA) [ARC2176]
- activity [1]: 394 s

Binder: TCCCGGTAGCGATCCAGAGAGGGATGGGGTGGGTGGCTGAGGATCGATC (ssDNA) [AMX(395)_H9]
- binding signal [4]: 9.61 % bound

Binder: TCCCAAGATCGGTACATACAGTGGGTGGTGAGGGTGGCTGAGGATCGATC (ssDNA) [AMX(395)_D11]
- Kd [2]: 5.55 nM

Binder: CCTCAGGGTTGGTGTGGTTGGCTGAGG (ssDNA) [ARC2183]
- activity [1]: 354 s

Binder: TCCCGGTCGAGTCCTCACGAAGGGTTGGGAGGGTGGCTGAGGATCGATC (ssDNA) [AMX(395)_E7]
- binding signal [4]: 9.12 % bound

Binder: TCCTATCGATACGGGGTCTTCTATTGGGTCGGGGTGGCTGAGGATCGATC (ssDNA) [AMX(395)_E2]
- binding signal [4]: 6.51 % bound

Binder: TCCCATCGATCTGGGGTAGTTTTATTGGGTCGGGTGGCTGAGGATCGATC (ssDNA) [AMX(453)_B10]
- activity [3]: 24.8 s

Binder: TCCCGAGCGATACTGCCTAGGTTGGGTAGGGTGGTGGCTGAGGATCGATC (ssDNA) [AMX(398)_D6 (ARC2026)]
- Kd [2]: 0.29 nM

Binder: TCCCGAGCGATATTGTCTAGGTTGGGTAGGGTGGTGGCTGAGGATCGATC (ssDNA) [AMX(453)_F11]
- activity [3]: 65.8 s

Binder: TCCCGAGCGATACTGTCTAGGTTGGGTAGGGTGGTGGCTGAGGATCGATC (ssDNA) [AMX(453)_F7]
- activity [3]: 28.6 s

Binder: TCCCAGAGCGGAAATCCTCAGGGGTGGGGTGGGTGGCTGAGGATCGATC (ssDNA) [AMX(395)_G11]
- binding signal [4]: 21.9 % bound

Binder: TCCCAATCGGTCCTGGTAATATATTGGTCGGGGTGGCTGAGGATCGATC (ssDNA) [AMX(399)_H3]
- binding signal (prothrombin): 45.5 % bound
- Kd [2]: 1.93 nM

Binder: TCCCGTTCGAGTCCTGGTGTTTTATTGGCCTGGGTGGCTGAGGATCGATC (ssDNA) [AMX(399)_D5]
- binding signal (prothrombin): 23.8 % bound
- Kd [2]: 2.26 nM

Binder: TCCGATTGACGTGGTGGGTTACTGGTTTGGGTGGCTGAGGATCGATC (ssDNA) [AMX(398)_A1]
- binding signal (prothrombin): 18 % bound
- Kd [2]: 0.3 nM

Binder: ACTAACTGCCTAGGTTGGGTAGGGTGGTGGCAGTTAGT (ssDNA) [ARC2181]
- activity [1]: 478 s

Binder: TCCCGACTTCGATTACTCAGGGGTGGCTGTGGGTGGCTGAGGATCGATC (ssDNA) [AMX(395)_E4]
- binding signal [4]: 24 % bound

Binder: TCCCATAGTATCGAGCCGATTGGATGGTCTGGGTGGCTGAGGATCGATC (ssDNA) [AMX(395)_F3]
- binding signal [4]: 6.29 % bound

Binder: TCCCGTAATCGAGCCTGGTATTGTTGGCCTGGGTGGCTGAGGATCGATC (ssDNA) [AMX(395)_A11]
- binding signal [4]: 35.8 % bound

Binder: TCCCGGTCGTATTAGTGTGGGTGGTGTAGGGTGGTGGCTGAGGATCGATC (ssDNA) [AMX(395)_E11]
- binding signal [4]: 33.7 % bound

Binder: AACTGCCTAGGTTGGGTAGGGTGGTGGCAGTT (ssDNA) [ARC2178]
- activity [1]: 429 s

Binder: CCTCAGGGATGGTGTGGGTGGCTGAGGTTTTTT (ssDNA) [ARC2186]
- activity [1]: 408 s

Binder: CTAACTGCCTAGGTTGGGTAGGGTGGTGGCAGTTAG (ssDNA) [ARC2180]
- activity [1]: 516 s

Binder: GACTAACTGCCTAGGTTGGGTAGGGTGGTGGCAGTTAGTC (ssDNA) [ARC2182]
- activity [1]: 518 s

Binder: TCCCGCAATCGGTACTCAGGAGGATGGTTGGGGTGGCTGAGGATCGATC (ssDNA) [AMX(395)_B5]
- binding signal [4]: 17.1 % bound

Binder: TAACTGCCTAGGTTGGGTAGGGTGGTGGCAGTTA (ssDNA) [ARC2179]
- activity [1]: 462 s

Binder: TCCCGGGATCGAGTCCGATTAGGGATGGTGTGGGTGGCTGAGGATCGATC (ssDNA) [AMX(395)_B7]
- Kd [2]: 14.5 nM

Binder: TCCTGAGGGATCAGGCTAGGTTGGGTAGGGTGGTGGCTGAGGATCGATC (ssDNA) [AMX(398)_C8 (ARC2027)]
- binding signal (prothrombin): 48.5 % bound
- Kd [2]: 0.42 nM

Binder: CCTCAGGGATGGTGTGGGTGGCTGAGGTTT (ssDNA) [ARC2185]
- activity [1]: 384 s

Binder: GACTACCTCAGGGATGGTGTGGGTGGCTGAGGTAGTC (ssDNA) [ARC2177]
- activity [1]: 401 s

Binder: TCCCACGGTCCTCACCTAGGATGGTTAGGGTGGTGGCTGAGGATCGATC (ssDNA) [AMX(395)_G2]
- binding signal [4]: 33.1 % bound

Binder: TCCCGAGTGTCATATCATCAGAGGTTGGAGTGGGTGGCTGAGGATCGATC (ssDNA) [AMX(395)_D5]
- binding signal [4]: 13.4 % bound

Binder: CTACCTCAGGGATGGTGTGGGTGGCTGAGGTAG (ssDNA) [ARC2175]
- activity [1]: 392 s

B1: AMX(395)_A4 (ssDNA)
DNA: TCCCGGGAGATCGCTTCGAAAATGGTTGGCGTGGGTGGCTGAGGATCGATC
- Kd [2]: 29.4 nM

— patent US20090221680, “Aptamers that bind thrombin with high affinity” (published 2009)
